The source of these data is PMC2674928, “The SARS-Unique Domain (SUD) of SARS Coronavirus Contains Two Macrodomains That Bind G-Quadruplexes”.

The stoichiometry N is the number of molecules, sites or subunits per partner or assembly.

Data set [1] has as its target SUD_(core), the core of the SARS-unique domain (Nsp3 residues 389-652) of SARS coronavirus (SARS coronavirus (strain TOR2)). Put plainly: crystal structure.
The target of another data set is SUDcore (SUDc5b) (SARS coronavirus strain TOR2, UniProt P0C6U8 1207-1470). Put plainly: ZIGE (gel shift); 100 mM KCl. The note with it: protein: recombinant; tags: N-terminal His-tag, factor Xa site linker; chain copies: 2; G4. Background: Mobility shift assays separate free from complexed probe on a gel.
The target in a further data set is full-length SUD (Nsp3c) (SARS coronavirus strain TOR2, UniProt P0C6U8 1207-1544). As to the kind of experiment: ZIGE (gel shift); 100 mM KCl. The conditions noted are these: protein: recombinant; tags: N-terminal His-tag, factor Xa site linker; G4.
The next data set concerns the target SUD-M (SARS coronavirus strain TOR2, UniProt P0C6U8 1343-1470). As to the kind of experiment: ZIGE (gel shift). The conditions noted are these: protein: recombinant; tags: N-terminal His-tag, factor Xa site linker; G4 (oligo(G) known to form quadruplexes).
A further data set has as its target SUD-N (SARS coronavirus strain TOR2, UniProt P0C6U8 1207-1342). As to the kind of experiment: ZIGE (gel shift). The note with it: protein: recombinant; tags: N-terminal His-tag, factor Xa site linker; G4 (oligo(G) known to form quadruplexes).

For the molecule “SUD_(core), the core of the SARS-unique domain (Nsp3 residues 389-652) of SARS coronavirus (domain or fragment)”, in data set [1], the stoichiometry N was found to be 2.
UGGGGGGAGGGAGGGAGGGA (structured_RNA) [elastin 3'-NTR RNA G4]: the binding result with SUDcore (SUDc5b) and in the data set with full-length SUD (Nsp3c) was “binds” throughout.
GGGCGCGGGAGGAATTGGGCGGG (structured_DNA) [Bcl-2 promoter G4]: the binding result with SUDcore (SUDc5b) and with full-length SUD (Nsp3c) was “binds” throughout.
For the molecule UGGGGU (structured_RNA) [UG4U], in the data set with SUDcore (SUDc5b), the binding result is given as “binds”.
In the case of GGGGGGGGGG (structured_DNA) [(dG)10], the binding result with SUD-M and with SUD-N was “binds” in each case.
